Source: article PMC2658781, “Effective DNA Inhibitors of Cathepsin G by In Vitro Selection”

How the values were obtained:
Cathepsin G (CatG) [1] = target: T1, Cathepsin G (CatG) (Homo sapiens, UniProt P08311 21-244); assay: SP Sepharose chromatography; no appreciable affinity; SELEX and Kd: 30 mM Tris-HCl pH 7.5, 150 mM NaCl, 5 mM KCl, 5 mM MgCl2, on ice/4 C; SPR: immobilized CatG, HBS-EP pH 7.4 running buffer, oligos in the Tris buffer, 25 C; settings: protein: native, label: 5' 32P
T1 sequence: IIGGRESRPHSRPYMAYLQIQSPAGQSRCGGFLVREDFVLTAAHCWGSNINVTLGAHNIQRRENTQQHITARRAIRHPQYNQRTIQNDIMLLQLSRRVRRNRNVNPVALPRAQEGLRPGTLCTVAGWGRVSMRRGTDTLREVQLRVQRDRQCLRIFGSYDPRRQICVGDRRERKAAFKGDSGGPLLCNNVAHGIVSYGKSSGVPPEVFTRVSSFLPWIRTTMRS

Cathepsin G (CatG) [2] = target: T1, Cathepsin G (CatG); assay: SP Sepharose chromatography (Kd in figure only); 5 mM Mg2+; SELEX and Kd: 30 mM Tris-HCl pH 7.5, 150 mM NaCl, 5 mM KCl, 5 mM MgCl2, on ice/4 C; SPR: immobilized CatG, HBS-EP pH 7.4 running buffer, oligos in the Tris buffer, 25 C; settings: protein: native, label: 5' 32P

GGTTGGTGTGGTTGG (structured_DNA) [THR, thrombin aptamer]: no binding (Cathepsin G (CatG) [1]; G-quartet, intramolecular).

B1: pE35 (PE35), L-Tyr aptamer (ssDNA)
DNA: AATTCGCTAGCTGGAGCTTGGATTGATGTGGTGTGTGAGTGCGGTGCCCGGATCC
B1: no binding (Cathepsin G (CatG) [1]).

B2: CG51 (ssDNA)
DNA: CAACGTGTGATATGTGGGTATACGCTTGGGTGTTACGCTGAGCACAGAGGGTATTCGTGT
B2: binds (Cathepsin G (CatG) [2]; predicted fold about -2.52 kcal/mol).

B3: cCG51 (ssDNA)
DNA: ACACGAATACCCTCTGTGCTCAGCGTAACACCCAAGCGTATACCCACATATCACACGTTG
B3: binds (Cathepsin G (CatG) [2]).
